Data from US20250002562A1 (Scripps Research, published 2025).
Where a chain is given by its changes, count along the chain named.

B1: SKAI-DS64 (antibody, V domains shown)
VH: EVQLLESGGGLVQPGGSLRLSCAASGFTFSDYSMSWVRQAPGKGLEWVSGIYHSDGSKYYADSVKGRFTISRDNSKNTLYLQMNSLRAEDTAVYYCARFDPVFDYWGQGTLVTV
VL: QSVLTQPPSASGTPGQRVTISCSGSSSNIGSNAVSWYQQLPGTAPKLLIYDNNHRPSGVPDRFSGSKSGTSASLAISGLRSEDEADYYCGSWDDSLNAYVFGGGTKLTVL
notes: also called SKAI-DS64 human IgG antibody
B2: SKAI-DS1 (antibody, V domains shown)
VH: EVQLLESGGGLVQTGGSLRLSCAASGFTFSDYAMSWVRQAPGKGLEWVSWIYSNDGNKYYADSVKGRFTISRDNSKNTLYLQMNSLRAEDTAVYYCARFPVPSWRNTWSSYDAMDVWGQGTLVTV
VL: QSVLTQPPSASGTPGRRVTISCTGSSSNIGSNYVSWYQQLPGTAPKLLIYSDSNRPSGVPDRFSGSKSGTSASLAISGLRSEDEADYYCGTWDASLSGYVFGGGTKLTVL
notes: also called SKAI-DS1 human IgG antibody
B3: SKAI-DS3 (antibody, V domains shown)
VH: EVQLLESGGGLVQPGGSLRLSCAASGFTFSDYSMSWVRQAPGKGLEWVSAISSDSSSTYYADSVKGRFTISRDNSENTLYLQMNSLRAEDTAVYYCAKAILRCIPLGCYYADAMDVWGQGTLVTV
VL: B2 VL with R16Q, Y33D, S35T, S51A, N54K, T91A, A94Y, G98A
notes: also called SKAI-DS3 human IgG antibody
B4: SKAI-DS66 (antibody, V domains shown)
VH: B1 VH with S33A, G50A, H53P, S54G, D55G, K58T, F99N, D100L, P101F, V102G
VL: B1 VL with S23T, S35Y, N52D, N53S, H54N, N97S
notes: also called SKAI-DS66 human IgG antibody
B5: SKAI-DS15 (antibody, V domains shown)
VH: EVQLLESGGGLVQPGGSLRLSCAASGFTFSDYDMSWVRQAPGKGLEWVSMIYSGSSSKYYADSVKGRFTISRDNSKNTLYLQMNSLRAEDTAVYYCARVTGTCHSGSCYYSDAMDVWGQGTLVTV
VL: B2 VL with R16Q, T23S, Y33D, S35N, S51D, T91A, A94D
notes: also called SKAI-DS15 human IgG antibody

What follows are binders tested against SARS-CoV2 RBD antigen (Genscript) (SARS-CoV2, UniProt P0DTC2 319-541) (assay: ELISA on RBD antigen, human IgG at 1 µg/mL, O.D. 450 nm).
B1: binds. B2: binds. B3: no binding (tested: 1 µg/mL). B4: binds. B5: no binding (tested: 1 µg/mL).
